In assay [1] the test system is G5-TK-Luc reporter, Gal4-EBNA2 transcriptional activation. Put plainly: G5-TK-Luc reporter assay with Gal4-EBNA2 in HeLa cells. Conditions: 10 ng BS69CC-MYND expression vector, relative to no Gal4 activator (set to 1), means of minimum 3 independent experiments each in triplicates. It is filed as cell-based. An excerpt: (§1) Cell culture and reporter gene assays for EBNA2-mediated transcription activation
The BS69CC-MYND dual domain, wild-type or the Q546A mutant, were inserted into a pCBS/FLAG mammalian expression vector [54], in which the BS69 fragments are preceded by a FLAG-tag. In the case of the Q546A/W550A BS69CC-MYND expression plasmid, the flanking DNA fragment was subcloned into the pSG5-Flag vector [55]. The EBNA2 expression vector harboring PXLXP1 or PXLXP2 mutations was generated by carrying out the PCR-based mutagenesis protocol provided by the manufactory (Stratagene). In each case, the codons of two prolines were replaced with the codons of alanine simultaneously. […]
Supplementary file ppat.1005414.s003.tif: S3 Fig In vivo transcription assays of G5-TK-Luc reporter gene. (A) The expression of Flag-tagged wild-type or Q546A BS69CC-MYND in HeLa cells was analyzed by Western blotting using anti-flag M2 monoclonal antibody. […] (B) Relative transcription activation by GAL4 DBD, Gal4-EBNA2 and Gal4-VP16 was analyzed in transfected HeLa cells in the absence or presence of 10 ng expression vector for wild-type BS69CC-MYND or its Q546A mutant. […]

The subject of another assay is LMP1-DNA (LMP1 promoter). Put plainly: ChIP at LMP1 promoter DNA in transfected BJAB cells. It is filed as cell-based, Epstein-Barr virus. As to conditions: M2 ChIP. An excerpt:
To determine whether BS69CC-MYND is able to associate with EBNA2 target promoters through protein-protein interactions, we performed Chromatin Immunoprecipitation (ChIP) assays using BJAB cells, in which flag-tagged wild-type, Q546A, or […] BS69CC-MYND was co-transfected with or without EBNA2 expression vector and a reporter plasmid containing the LMP1 promoter, LMP1-Luc. […] On the other hand, an EBNA2 ChIP brought down ~13% of LMP1-DNA, consistent with the fact that LMP1 is one of the target sites of EBNA2 [35, 36].
5x10^4/per 100 μl primary B cells were cultured in RPMI 1640 supplemented with 15% fetal calf serum (FCS), 2 mM L-glutamine, and penicillin/streptomycin, and aliquoted into a 96-well plate. […] Cells were collected at 0, 1, 3, 5, and 7 days of post-infection (dpi) and BS69 mRNA expression in virus or mock -infected B cells were determined as the relative expression levels versus GAPDH by quantitative reverse transcription real time PCR (qRT-PCR). […] The amount of ChIPed DNA was quantified by real time PCR and represented as % of input DNA. […]
The transfection-mediated co-immunoprecipitation (Co-IP) assay was employed to identify the physical interaction of EBNA2 with BS69CC-MYND using EBV-negative B lymphoma cells (BJAB). […] The proteins were detected and visualized using an ECL detection kit (Millipore). […]

Assay [2] concerns EBNA2. The experiment in a line: Co-immunoprecipitation of EBNA2 with flag-BS69CC-MYND in BJAB cells. It is filed as cell-based, Epstein-Barr virus. As to conditions: anti-flag M2 IP, Western blot. The text has this:
To address whether the BS69 C-terminal domain, if expressed, interacts with EBNA2 in vivo, we ectopically co-expressed flag-tagged wild-type, Q546A, or Q546A/W550A BS69CC-MYND with EBNA2 in BJAB cells, followed by immunoprecipitation using anti-flag M2-conjugated sepharose and Western blotting with antibodies against EBNA2 and M2, respectively. […] In addition, the immunofluorescence (IF) image pointed to a reduction of large amount of BS69 expression in EBV infected B cells at 5 dpi, confirming the barely low expression levels of BS69 shown in Fig 4B.
Co-immunoprecipitation, chromatin immunoprecipitation (ChIP), and western blot analyses
The transfection-mediated co-immunoprecipitation (Co-IP) assay was employed to identify the physical interaction of EBNA2 with BS69CC-MYND using EBV-negative B lymphoma cells (BJAB). Cells were co-transfected with the expression plasmids of EBNA2 (E2) and flag- BS69CC-MYND wild type, Q546A mutant (Q546A), or Q546A/W550A mutant (Q546A/W550A) and subjected to IP analysis using M2-conjugated sepharose (Sigma). […] The proteins were detected and visualized using an ECL detection kit (Millipore). […] The protein levels of endogenous BS69 in the obtained cell lines were determined by Western blot using BS69 antibody (Santa Cruz biotechnology). […] The proteins were detected and visualized using an ECL detection kit (Millipore).
On the technique in general: A western blot detects proteins with antibodies after separation by electrophoresis.

Assay [3] has as its system Cp-Luc reporter, EBNA2-mediated transcriptional activation. Put plainly: Cp-Luc reporter assay (EBNA2-mediated transcription) in BJAB cells. The class given is cell-based, Epstein-Barr virus. As to conditions: 10 μg EBNA2 vector, 5 μg flag-BS69CC-MYND plasmid, 5 μg reporter.
Description: as §1
(§2) The BS69CC-MYND dual domain, wild-type or the Q546A mutant, were inserted into a pCBS/FLAG mammalian expression vector [54], in which the BS69 fragments are preceded by a FLAG-tag. In the case of the Q546A/W550A BS69CC-MYND expression plasmid, the flanking DNA fragment was subcloned into the pSG5-Flag vector [55]. The EBNA2 expression vector harboring PXLXP1 or PXLXP2 mutations was generated by carrying out the PCR-based mutagenesis protocol provided by the manufactory (Stratagene). In each case, the codons of two prolines were replaced with the codons of alanine simultaneously. For EBNA2-dependent transcription reporter assays, 10 μg of the expression vector of EBNA2 (E2), 5 μg flag-BS69CC- MYND wild type, or Q546A plasmid, and 5 μg LMP1-Luc or Cp-Luc reporter plasmid, and 1 μg CMV-βGal control plasmid were co-transfected into BJAB cells following the protocol as described previously. For the parallel control, 10 μg EBNA1 expression plasmid and 5 μg OriP-Luc reporter plasmid were used instead. Luciferase and β-Gal activities were assayed by Orion L (Berthold). A DNA fragment encoding residues 375–465 of EBNA2 from EBV W91 strain [49] containing CR7 and CR8 of EBNA2 were inserted into pCD-Gal4(1–147) vector to generate pCD-Gal4-EBNA2(375–465), which encodes a GAL4-EBNA2 fusion protein. […]
In general terms: Reporter assays use an easily measured gene product as a stand-in for the process of interest.

For assay [4], the system named is LMP1-Luc reporter, EBNA2-mediated transcriptional activation. The experiment in a line: LMP1-Luc reporter assay (EBNA2-mediated transcription) in BJAB cells. It is filed as cell-based, Epstein-Barr virus. As to conditions: 10 μg EBNA2 vector, 5 μg flag-BS69CC-MYND plasmid, 5 μg reporter.
Description: as §1, §2

The subject of assay [5] is EBNA2. The experiment in a line: Confocal immunofluorescence of EBNA2 and BS69 in EBV-infected B cells. It is filed as cell-based, Epstein-Barr virus. Conditions: EBV infected B cells at 1 and 3 dpi. The protocol: 5x10^4/per 100 μl primary B cells were cultured in RPMI 1640 supplemented with 15% fetal calf serum (FCS), 2 mM L-glutamine, and penicillin/streptomycin, and aliquoted into a 96-well plate. 100 μL previously purified EBV [52] or PBS (mock infection) was utilized as the inoculum. Cells were collected at 0, 1, 3, 5, and 7 days of post-infection (dpi) and BS69 mRNA expression in virus or mock -infected B cells were determined as the relative expression levels versus GAPDH by quantitative reverse transcription real time PCR (qRT-PCR). For Western blot analysis, a total of 5x10^5 B cells with EBV infection were collected at 0, 1, 4, and 7 dpi, respectively. The primers for BS69 are […] (F) and […] (R), whereas the primers for GAPDH internal control are […] (F) and […] (R). The primers for chromatin immunoprecipitati on assays of the LMP1 promoter and GAPDH promoter control have been described previously. The amount of ChIPed DNA was quantified by real time PCR and represented as % of input DNA. For Immunofluorescence analysis (IFA), cells were fixed in 2% paraformaldehyde (Sigma) and subjected to an immunostaining protocol using antibodies for BS69 (Santa Cruz), and EBNA2 (Santa Cruz). […]

For the next assay, the system named is cancer cell growth. Conditions: in vitro and in vivo; cited from earlier work. An excerpt: BS69 (ZMYND11) is an emerging tumor suppressor [19–21] that was originally identified as the Adenovirus protein E1A and EBNA2-interacting protein [22, 23]. […] BS69 contains, in addition to a C-terminal MYND (MYeloid translocation protein 8, Nervy and DEAF-1) domain, an N-terminal Plant Homo Domain (PHD) zinc finger, a Bromo domain and a PWWP domain.

The subject of assay [6] is EBNA1-mediated transcriptional activation of OriP-Luc reporter. The experiment in a line: OriP-Luc reporter assay (EBNA1-mediated transcription). As to conditions: 10 μg EBNA1 expression plasmid, 5 μg OriP-Luc reporter. It is filed as cell-based, Epstein-Barr virus.
Description: as §1, §2

B1: BS69CC-MYND: residues 440–562 of BS69/ZMYND11, tandem coiled-coil-MYND domains (protein, UniProt Q15326 440-562, looked up, fragment)
chain: TKKLSASSPRMLHRSTQTTNDGVCQSMCHDKYTKIFNDFKDRMKSDHKRETERVVREALEKLRSEMEEEKRQAVNKAVANMQGEMDRKCKQVKEKCKEEFVEEIKKLATQHKQLISQTKKKQW
modifications: coiled-coil-MYND domain FLAG tag
notes: residues 440–562 of BS69/ZMYND11, tandem coiled-coil-MYND domains
As for B1, in assay [1], the “activation of G5-TK-Luc by Gal4-EBNA2 in presence of BS69CC-MYND” value is “less than 4 fold”. Moreover, the “ChIPed LMP1-DNA” value is on record as 7–8 % over input DNA with LMP1-DNA (LMP1 promoter) (absence of EBNA2 (similar to IgG negative control)) and ~ 17% in the assay with LMP1-DNA (LMP1 promoter) (presence of EBNA2, % of input DNA). Also, the EBNA2 co-precipitation entry in the assay on EBNA2 [2] is recorded as “EBNA2 co-precipitates with wild-type flag-tagged BS69CC-MYND”. In assay [3], the “relative transcriptional activation by EBNA2 in presence of BS69CC-MYND, Cp-Luc” value is recorded as at most 2 fold. Also, the “relative transcriptional activation by EBNA2 in presence of BS69CC-MYND, LMP1-Luc” value in assay [4] is reported as at most 2 fold.

B2: BS69: emerging tumor suppressor, Adenovirus protein E1A and EBNA2-interacting protein (protein, UniProt Q15326 1-602, looked up)
Zinc finger MYND …: MARLTKRRQADTKAIQHLWAAIEIIRNQKQIANIDRITKYMSRVHGMHPKETTRQLSLAVKDGLIVETLTVGCKGSKAGIEQEGYWLPGDEIDWETENHDWYCFECHLPGEVLICDLCFRVYHSKCLSDEFRLRDSSSPWQCPVCRSIKKKNTNKQEMGTYLRFIVSRMKERAIDLNKKGKDNKHPMYRRLVHSAVDVPTIQEKVNEGKYRSYEEFKADAQLLLHNTVIFYGADSEQADIARMLYKDTCHELDELQLCKNCFYLSNARPDNWFCYPCIPNHELVWAKMKGFGFWPAKVMQKEDNQVDVRFFGHHHQRAWIPSENIQDITVNIHRLHVKRSMGWKKACDELELHQRFLREGRFWKSKNEDRGEEEAESSISSTSNEQLKVTQEPRAKKGRRNQSVEPKKEEPEPETEAVSSSQEIPTMPQPIEKVSVSTQTKKLSASSPRMLHRSTQTTNDGVCQSMCHDKYTKIFNDFKDRMKSDHKRETERVVREALEKLRSEMEEEKRQAVNKAVANMQGEMDRKCKQVKEKCKEEFVEEIKKLATQHKQLISQTKKKQWCYNCEEEAMYHCCWNTSYCSIKCQQEHWHAEHKRTCRRKR
Consider B2, for which, in the assay on EBNA2 [5], the “colocalization of EBNA2 and BS69” value is “colocalization of EBNA2 and BS69 appeared”. Further, the “effect of BS69 overexpression on cancer cell growth” value with cancer cell growth was “suppresses cancer cell growth both in vitro and in vivo”. The “suppression of EBNA1-mediated transcriptional activation of OriP-Luc” value in assay [6] is “failed to suppress”.

The values above are taken from publication PMC4742278, “BS69/ZMYND11 C-Terminal Domains Bind and Inhibit EBNA2” (PLoS Pathogens, 2016).
